Assay results taken from US20240409617A1 (published 2024).
Where two headings read alike, the source gives them in different places.

How the values were obtained:
Test in all cases: BLI
S1 [1] = target: S1
S1-biotin(ACRO) = target: S1-biotin(ACRO)
S1 [2] = target: S1; remark: listed apart in the source
S1 [3] = target: S1; remark: listed apart in the source
S1 [4] = target: S1; remark: listed apart in the source

Row | Binder | Kd (S1 [1]) [nM] | Kd (S1-biotin(ACRO)) [nM] | Kd (S1 [2]) [nM] | Kd (S1 [3]) [nM] | Kd (S1 [4]) [nM]
1 | Ab 5 (Fc fusion) VH: QVQLVQSGGGVVQPGRSLRLSCAASGFTFTTYGMHWVRQAPGKGLEWVAVISYDGSIKNYADFVEGRFTISRDNSKNTLYLQMNSLRPEDTGVYYCARVGDSSSYYGIDAWGQGTLVTVSS VL: not shown | < 0.001 |  |  |  | 
2 | Ab 15 (Fc fusion) VH: QVQLVQSGGGLVKPGRSLRLSCTASGFTFGDYAMSWFRQAPGKGLEWVGFIRSKAYGGTTGYAASVKGRFTISRDDSKSIAYLQMNSLKTEDTAVYYCTTADDDMDVWGKGTTVTVSS VL: NFMLTQPHSVSESPGKTVTISCTRSSGTIASNYVQWYQQRPGSAPTTVIYEDNQRPSGVPDRFSGSIDRSSNSASLTISGLTPDDEADYYCQSYDTSNHYVFGTGTKVTVL | 0.033 | 0.033 |  |  | 
3 | Ab 23 (Fc fusion) VH: EVQLVQSGAEVKKPGSSVKVSCRSSGGTFSTYGITWVRQAPGQGLEWMGRIIPSLGIPNYAQKFQGRVTITADTSVSTAWMELSSLESDDTAIYYCARENIDLATNDFWGQGTLVTVSS VL: QSALTQPPSASGSPGQSVTISCTGTSRDIGAYGYVSWYQQVPGKAPKLIIYEVRNRPSGVSSRFSGSKSGNTASLTISGLQAEDEADYYCSSYTSSSTLDVVFGGGTKLTVL | 0.338 | 0.338 |  |  | 
4 | Ab 27 (Fc fusion) VH: QVQLVQSGTEVKKPGASVKVSCKASGYSFTGSHLHWVRQAPGQGLEWMGWINPDSGVINYAQKFQGRVTLTRDTSISTAYMELSGLRSDDTAVYYCARDKAIGYVWALDYWGQGTLVTVSS VL: QSALTQPPSVSGSPGQSVTISCTGTSSDVGTYNRVSWYQQPPGKAPKLMIYEVSNRPSGVSNRFSGSKSGNTASLTISGLQAEDEADYYCSSYTRTFTYVFGTGTKVTVL | < 0.001 | < 0.001 |  |  | 
5 | Ab 25 (Fc fusion) VH: QVQLVQSGGGLVQPGGSLRLSCAASGFTFSSYWMSWVRQAPGKGLEWVANIKQDGSEKYYVDSVKGRFTISRDNAKNSLYLQMNSLRAEDTAVYYCARGFYYYGAFDIWGQGTTVTVSS VL: NFMLTQPHSVSESPGKTVTISCTGSSGSIASNYVQWYQQRPGSAPTTVIYEDNQRPSGVPDRFSGSIGSSSNSASLTISGLKTEDEADYYCQSYDSSNHWVFGGGTKLTVL | 10.1 | 10.1 |  |  | 
6 | Ab 2-7 (Fc fusion) chain 1: QVTLKESGPTRVKPTQTLTLTCTFSGFSLSTTGVGVGWIRQPPGKALEWLALIYWNDDKRYSPSLKSRLTITKDTSKNQVVLTMTNMDPVDTATYYCARISGSGYFYPFDIWGQGTTVTVSS chain 2: NFMLTQPHSVSESPGKTVTISCTRSSGSIASNYVQWYQQRPGSSPTTVIYEDNQRPSGVPDRFSGSIDSSSNSASLTISGLKAEDEADYYCQSYDSSSLWVFGGGTKLTVL | < 0.001 |  | < 0.001 |  | 
7 | Ab set2-7 (Fc fusion) chain 1: QVTLKESGPTRVKPTQTLTLTCTFSGFSLSTTGVGVGWIRQPPGKALEWLALIYWNDDKRYSPSLKSRLTITKDTSKNQVVLTMTNMDPVDTATYYCARISGSGYFYPFDIWGQGTTVTVSS chain 2: NFMLTQPHSVSESPGKTVTISCTRSSGSIASNYVQWYQQRPGSSPTTVIYEDNQRPSGVPDRFSGSIDSSSNSASLTISGLKAEDEADYYCQSYDSSSLWVFGGGTKLTVL |  |  |  | < 0.001 | < 0.001
8 | Ab 30 (Fc fusion) VH: QVQLVQSGGGVVQPGKSLRLSCTASGFTFSDFPIHWVRQAPGKGLEWVGVISYDGNIKYYGDSVKGRFTISRDNAKNSLYLQMNSLRVEDTAVYYCARGGSSFDIWGQGTTVTVSS VL: SYELTQPPSVSEAPRQRVTISCSGSTSNIGNNAVSWYQHLPGKAPKLLIYYNERLPSGVSDRFSGSKSGTSASLAISGLRSEDEADYYCAAWDDSLSGHVVFGGGTKLTVL | 0.314 |  |  |  | 
